Measurements from PMC2132664 (The Journal of Cell Biology, 1998).

B1: STABLE COIL K560–GFP (aa 343–370 replaced by four repeats of EIEALKA) (domain or fragment, human)
chain: MADLAECNIKVMCRFRPLNESEVNRGDKYIAKFQGEDTVVIASKPYAFDRVFQSSTSQEQVYNDCAKKIVKDVLEGYNGTIFAYGQTSSGKTHTMEGKLHDPEGMGIIPRIVQDIFNYIYSMDENLEFHIKVSYFEIYLDKIRDLLDVSKTNLSVHEDKNRVPYVKGCTERFVCSPDEVMDTIDEGKSNRHVAVTNMNEHSSRSHSIFLINVKQENTQTEQKLSGKLYLVDLAGSEKVSKTGAEGAVLDEAKNINKSLSALGNVISALAEGSTYVPYRDSKMTRILQDSLGGNCRTTIVICCSPSSYNESETKSTLLFGQRAKTIKNTVCVNVELTAEQWKKEIEALKAEIEALKAEIEALKAEIEALKAGETVPIDEQFDKEKANLEAFTVDKDITLTNDKPATAIGVIGNFTDAERRKCEEEIAKLYKQLDDKDEEINQQSQLVEKLKTQMLDQEELLASTRRDQDNMQAELNRLQAENDASKEEVKEVLQALEELAVNYDQKSQEVEDKTKEYELLSDELNQKSATLASIDAELQKLKEMTNHQKKRAAEMMASLLK
B2: DEL K560–GFP (aa 341–370 of the neck coiled coil deleted) (domain or fragment, human, UniProt P33176 1-560, looked up)
chain: MADLAECNIKVMCRFRPLNESEVNRGDKYIAKFQGEDTVVIASKPYAFDRVFQSSTSQEQVYNDCAKKIVKDVLEGYNGTIFAYGQTSSGKTHTMEGKLHDPEGMGIIPRIVQDIFNYIYSMDENLEFHIKVSYFEIYLDKIRDLLDVSKTNLSVHEDKNRVPYVKGCTERFVCSPDEVMDTIDEGKSNRHVAVTNMNEHSSRSHSIFLINVKQENTQTEQKLSGKLYLVDLAGSEKVSKTGAEGAVLDEAKNINKSLSALGNVISALAEGSTYVPYRDSKMTRILQDSLGGNCRTTIVICCSPSSYNESETKSTLLFGQRAKTIKNTVCVNVELTAEQWGETVPIDEQFDKEKANLEAFTVDKDITLTNDKPATAIGVIGNFTDAERRKCEEEIAKLYKQLDDKDEEINQQSQLVEKLKTQMLDQEELLASTRRDQDNMQAELNRLQAENDASKEEVKEVLQALEELAVNYDQKSQEVEDKTKEYELLSDELNQKSATLASIDAELQKLKEMTNHQKKRAAEMMASLLK

Target: the molecule itself
Test: single-spot fluorescence intensity

| Protein | stoichiometry N |
| --- | --- |
| B1 | 2 |
| B2 | 2 |
